Experimental data reported in PMC5117717.

Experiments:
[1] = biological target: Alexa Fluor 488-labelled BRC4 peptide (human); test: fluorescence polarisation; direct binding; 10 nM Alexa Fluor 488-labelled BRC4 peptide constant, protein titrated; 25 °C, 100 mM Tris (pH 7.5), 200 mM KCl, 1.25% glycerol; single-site fit
[2] = biological target: unlabelled BRC4 repeat (E. coli-produced); test: DSF (thermal shift); details: read off a plot
[3] = biological target: ATP-Mg2+; test: DSF (thermal shift); details: read off a plot
[4] = biological target: RadA oligomerisation peptide; test: DSF (thermal shift); details: read off a plot
[5] = biological target: HumRadA1 (first humanised RadA protein) (Pyrococcus furiosus) (UniProt O74036); test: ITC; 25 °C; peptide titrated into protein; single-site model; the buffer for HumRadA1 is not listed
[6] = biological target: HumRadA33 (Pyrococcus furiosus) (UniProt O74036); test: ITC; 25 °C; peptide titrated into protein; 50 mM Tris–HCl (pH 8.5), 250 mM NaCl, 5 mM MgCl2; single-site model
[7] = biological target: HumRadA2 (Pyrococcus furiosus) (UniProt O74036); test: ITC; 25 °C; peptide titrated into protein; 50 mM Tris–HCl (pH 7.5), 150 mM NaCl, 5 mM MgCl2; single-site model
[8] = biological target: ChimRAD51 (archeal human chimeric RadA/RAD51/RadA protein) (Pyrococcus furiosus | human) (UniProt O74036); test: ITC; 25 °C; ChimRAD51 dialysed against 20 mM K/phosphate (pH 8.0) and 192 mM KCl

Substance | other: ΔT (DSF thermal shift on ligand addition) [2] [°C] | Kd [5] [nM] | Kd [6] [nM] | also measured
ChimRAD51 (archeal human chimeric RadA/RAD51/RadA protein) (from UniProt O74036 108-165; Q06609 156-261; O74036 278-349) | – | – | – | Kd [1]: 4 nM
PfRadA monomeric C-terminal ATPase domain (from residue 108, L2 loop deleted) I169M; Y201A; V202Y; E219S; D220A; K221M | 0.3 | – | – | –
PfRadA monomeric C-terminal ATPase domain (from residue 108, L2 loop deleted) I169M; Y201A; V202Y; L213Q; V215L; Q216Y; E219S; D220A; K221M; D267M; L274E; Y275F | 0.15 | – | – | other: ΔT (DSF thermal shift on ligand addition) [3]: 6.1 °C; other: ΔT (DSF thermal shift on ligand addition) [4]: 2.7 °C
RadA oligomerisation peptide | – | 1800 | 14000 | Kd [7]: 3400 nM

Continued, in another order:

other: ΔT (DSF thermal shift on ligand addition) [2] [°C] | Kd [5] [nM] | Kd [6] [nM] | Substance | also measured
– | 24000 | 800 | RAD51 oligomerisation peptide | –
– | – | 33 | unlabelled BRC4 repeat (E. coli-produced) (peptide) | stoichiometry N [8]: 1
